Assay results from patent publication US20200069794A1.

Experiments:
[1] = target: human metapneumovirus (hMPV) fusion (F) protein (Strain: A/TN92-4) (human metapneumovirus) (UniProt Q6WB98); test: flow cytometry, fluorescent staining of Hela cells transfected with hMPV/hPIV3 mRNA constructs; secondary antibody only (control)
[2] = target: human metapneumovirus (hMPV) fusion (F) protein (Strain: A/TN92-4) (human metapneumovirus) (UniProt Q6WB98); test: flow cytometry, fluorescent staining of Hela cells transfected with hMPV/hPIV3 mRNA constructs; MPE8 at 500 nM plus secondary antibody

Substance: secondary antibody (staining control, 'Secondary only')
- Mean FL4-H [1]: 2160

Substance: hMPV-F-specific antibodies MPE-8 (antibody)
- Mean FL4-H [2]: 617000
